Measured values as given in IntAct's records for PubMed 17525340.

B1: BRCA1-A complex subunit Abraxas 1 (Homo sapiens), Q6UWZ7 (parent)
chain: MEGESTSAVLSGFVLGALAFQHLNTDSDTEGFLLGEVKGEAKNSITDSQMDDVEVVYTIDIQKYIPCYQLFSFYNSSGEVNEQALKKILSNVKKNVVGWYKFRRHSDQIMTFRERLLHKNLQEHFSNQDLVFLLLTPSIITESCSTHRLEHSLYKPQKGLFHRVPLVVANLGMSEQLGYKTVSGSCMSTGFSRAVQTHSSKFFEEDGSLKEVHKINEMYASLQEELKSICKKVEDSEQAVDKLVKDVNRLKREIEKRRGAQIQAAREKNIQKDPQENIFLCQALRTFFPNSEFLHSCVMSLKNRHVSKSSCNYNHHLDVVDNLTLMVEHTDIPEASPASTPQIIKHKALDLDDRWQFKRSRLLDTQDKRSKADTGSSNQDKASKMSSPETDEEIEKMKGFGEYSRSPTF
B2: BRCA1-A complex subunit Abraxas 1 (Homo sapiens), Q6UWZ7 (parent)
chain: B1 chain
partner: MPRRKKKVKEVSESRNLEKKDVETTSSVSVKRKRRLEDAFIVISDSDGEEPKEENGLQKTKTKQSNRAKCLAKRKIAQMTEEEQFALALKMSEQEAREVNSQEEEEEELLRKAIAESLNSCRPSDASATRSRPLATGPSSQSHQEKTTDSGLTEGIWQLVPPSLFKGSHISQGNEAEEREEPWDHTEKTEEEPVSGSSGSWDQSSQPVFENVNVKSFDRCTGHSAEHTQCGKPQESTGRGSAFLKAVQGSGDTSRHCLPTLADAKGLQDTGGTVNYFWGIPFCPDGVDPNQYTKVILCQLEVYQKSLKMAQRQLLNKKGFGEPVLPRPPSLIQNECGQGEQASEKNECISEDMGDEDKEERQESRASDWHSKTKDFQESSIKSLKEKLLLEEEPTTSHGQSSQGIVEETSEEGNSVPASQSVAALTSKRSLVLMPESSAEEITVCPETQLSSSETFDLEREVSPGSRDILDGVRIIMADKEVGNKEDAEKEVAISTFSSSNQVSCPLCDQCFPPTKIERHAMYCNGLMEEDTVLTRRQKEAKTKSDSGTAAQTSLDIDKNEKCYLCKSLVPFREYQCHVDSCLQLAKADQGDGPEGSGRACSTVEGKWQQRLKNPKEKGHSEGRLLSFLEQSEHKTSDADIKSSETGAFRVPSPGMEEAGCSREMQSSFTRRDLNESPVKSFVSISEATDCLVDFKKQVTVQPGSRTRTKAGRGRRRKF

Variants of: B1
Settings: with brca1_human BRCA1, P38398
Sequence of brca1_human BRCA1, P38398 (P38398 whole entry, looked up): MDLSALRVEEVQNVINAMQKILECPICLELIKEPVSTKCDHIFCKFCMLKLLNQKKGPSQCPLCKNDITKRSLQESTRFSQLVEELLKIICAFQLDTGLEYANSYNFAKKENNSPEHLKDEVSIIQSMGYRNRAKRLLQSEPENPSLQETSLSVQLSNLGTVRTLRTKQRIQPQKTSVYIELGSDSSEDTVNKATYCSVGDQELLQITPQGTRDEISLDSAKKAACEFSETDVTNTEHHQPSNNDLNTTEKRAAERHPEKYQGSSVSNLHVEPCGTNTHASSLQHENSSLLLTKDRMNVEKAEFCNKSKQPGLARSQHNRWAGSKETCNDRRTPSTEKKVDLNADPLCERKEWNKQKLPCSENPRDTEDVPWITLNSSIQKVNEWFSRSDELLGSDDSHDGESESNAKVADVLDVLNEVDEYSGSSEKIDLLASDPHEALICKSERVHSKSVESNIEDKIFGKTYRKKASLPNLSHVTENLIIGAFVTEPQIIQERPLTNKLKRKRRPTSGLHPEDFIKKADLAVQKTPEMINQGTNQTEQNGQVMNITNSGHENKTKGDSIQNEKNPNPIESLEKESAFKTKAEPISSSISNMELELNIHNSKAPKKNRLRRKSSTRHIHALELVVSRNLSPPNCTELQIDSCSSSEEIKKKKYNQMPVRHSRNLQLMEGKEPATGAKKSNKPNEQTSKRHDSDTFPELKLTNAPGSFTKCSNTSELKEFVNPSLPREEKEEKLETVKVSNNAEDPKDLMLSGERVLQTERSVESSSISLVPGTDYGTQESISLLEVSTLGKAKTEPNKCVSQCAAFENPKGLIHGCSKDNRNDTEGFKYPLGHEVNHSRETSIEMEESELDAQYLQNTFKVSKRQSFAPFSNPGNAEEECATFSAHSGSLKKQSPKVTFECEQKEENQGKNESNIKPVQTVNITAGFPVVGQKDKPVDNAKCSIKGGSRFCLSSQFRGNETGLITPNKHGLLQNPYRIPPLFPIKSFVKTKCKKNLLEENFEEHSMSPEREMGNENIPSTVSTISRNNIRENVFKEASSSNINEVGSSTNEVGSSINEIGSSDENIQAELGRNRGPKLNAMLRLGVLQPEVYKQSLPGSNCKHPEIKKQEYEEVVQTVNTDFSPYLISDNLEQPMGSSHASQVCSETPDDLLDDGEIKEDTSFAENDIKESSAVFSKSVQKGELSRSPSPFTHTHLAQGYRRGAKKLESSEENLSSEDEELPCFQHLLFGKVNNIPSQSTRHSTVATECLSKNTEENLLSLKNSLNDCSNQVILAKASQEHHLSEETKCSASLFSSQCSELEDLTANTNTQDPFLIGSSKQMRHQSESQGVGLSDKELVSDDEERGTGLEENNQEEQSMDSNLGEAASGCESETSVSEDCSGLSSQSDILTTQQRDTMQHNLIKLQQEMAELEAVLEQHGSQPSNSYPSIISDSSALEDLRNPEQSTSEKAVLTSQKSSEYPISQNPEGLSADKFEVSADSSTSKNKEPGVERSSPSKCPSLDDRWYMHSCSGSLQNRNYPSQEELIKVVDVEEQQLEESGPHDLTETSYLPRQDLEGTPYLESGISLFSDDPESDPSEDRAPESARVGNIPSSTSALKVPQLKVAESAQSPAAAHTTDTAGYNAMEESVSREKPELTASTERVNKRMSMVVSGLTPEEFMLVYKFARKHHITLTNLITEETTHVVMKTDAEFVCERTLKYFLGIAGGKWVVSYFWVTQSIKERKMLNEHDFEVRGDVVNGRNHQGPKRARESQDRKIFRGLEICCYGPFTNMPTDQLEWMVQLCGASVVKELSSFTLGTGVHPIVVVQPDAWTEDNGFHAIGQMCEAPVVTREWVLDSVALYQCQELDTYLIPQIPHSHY

| Variant | effect of a mutation on the interaction |
| --- | --- |
| S406A | disrupting interaction |

Variants of: B1
Settings: with brca1_human BRCA1, P38398
Remark: another data set of the same source

| Variant | effect of a mutation on the interaction |
| --- | --- |
| S406A | increasing interaction |

Variants of: B2
Settings: with uimc1_human UIMC1, Q96RL1

| Variant | effect of a mutation on the interaction |
| --- | --- |
| S406A | disrupting interaction |
